Reference: patent US7723070B2, “Overexpression of aminoacyl-tRNA synthetases for efficient production of engineered proteins containing amino acid analogues” (California Institute of Technology, priority 2000, dated 2010)

Key:
[1] = substrate: CSCC[C@H](N)C(=O)O; assay: purified protein, by the assay type; conditions: 25.0 °C
[2] = substrate: C#CCCC(N)C(=O)O; assay: ATP-PPi exchange assay: activation of methionine and methionine analogues by MetRS; type: biochemical, E. coli; conditions: other: ATP-PPi exchange, purified truncated MetRS; 25.0 °C
Method: (§1) Activation of methionine analogues by MetRS was assayed via the amino-acid-dependent ATP-PPi exchange reaction, also as previously described (Mellot, P.; Mechulam, Y.; LeCorre, D.; Blanquet, S.; Fayat, G. J. Mol. Biol. 1989, 208, 429; Blanquet, S.; Fayat, G.; Waller, J.-P. Eur. J. Biochem. 1974, 44, 343; Ghosh, G.; Pelka, H.; Schulman, L. H. Biochemistry 1990, 29, 2220). The assay, which measures the ^32P-radiolabeled ATP formed by the enzyme-catalyzed exchange of ^32P-pyrophosphate (PPi) into ATP, was conducted in 150 μl of reaction buffer (pH 7.6, 20 mM imidazole; 0.1 mM EDTA, 10 mM β-mercaptoethanol, 7 mM MgCl2, 2 mM ATP, 0.1 mg/ml BSA, and 2 mM PPi (in the form of sodium pyrophosphate with a specific activity of approximately 0.18 TBq/mole)). […] Kinetic parameters for analogue 5 were obtained with an enzyme concentration of 75 nM and analogue concentrations of 100 μM to 10 mM. Parameters for methionine were obtained by using concentrations ranging from 10 μM to 1 mM. […] Aliquots of 20 μl were removed from the reaction mixture at various time points and were quenched in 0.5 ml of a solution comprising 200 mM PPi, 7% w/v HClO4, and 3% w/v activated charcoal. The charcoal was rinsed twice with 0.5 mL of a 10 mM PPi, 0.5% HClO4 solution and was then resuspended in 0.5 mL of this solution and counted via liquid scintillation methods. Kinetic constants were calculated by nonlinear regression analysis.
(§2) Activation of methionine analogues by MetRS was assayed at 25° C. via the amino acid-dependent ATP-PPi exchange reaction, also as described in Example I (G. Ghosh, H. Pelka, L. H. Schulman, Biochemistry 1990, 29, 2220-2225). […] Kinetic parameters for analogue 5 were obtained with an enzyme concentration of 50 nM and analogue concentrations of 100 μM to 10 mM. […] Kinetic parameters for analogues 4, 7, 8, and 12 were obtained with an enzyme concentration of 50 or 75 nM and analogue concentrations ranging from 5 to 70 mM. Parameters for methionine were obtained by using concentrations ranging from 10 μM to 1 mM. […] Kinetic constants were calculated by nonlinear regression analysis.

[3] = substrate: C/C=C/CC(N)C(=O)O; assay: as above; type: biochemical, E. coli; conditions: 25.0 °C
Method: as §1, §2

[4] = substrate: C=CCCC(N)C(=O)O; assay: as above; type: biochemical, E. coli; conditions: other: ATP-PPi exchange, purified truncated MetRS; 25.0 °C
Method: as §1, §2

[5] = substrate: CCCC[C@H](N)C(=O)O; assay: as above; type: biochemical, E. coli; conditions: other: ATP-PPi exchange, purified truncated MetRS; 25.0 °C
Method: as §1, §2

[6] = other: ATP-PPi exchange, purified truncated MetRS
[7] = other: Example I text, 75 nM enzyme

B1: methionyl tRNA synthetase (MetRS) (Escherichia coli K-12) (protein)
chain: MTQVAKKILVTCALPYANGSIHLGHMLEHIQADVWVRYQRMRGHEVNFICADDAHGTPIMLKAQQLGITPEQMIGEMSQEHQTDFAGFNISYDNYHSTHSEENRQLSELIYSRLKENGFIKNRTISQLYDPEKGMFLPDRFVKGTCPKCKSPDQYGDNCEVCGATYSPTELIEPKSVVSGATPVMRDSEHFFFDLPSFSEMLQAWTRSGALQEQVANKMQEWFESGLQQWDISRDAPYFGFEIPNAPGKYFYVWLDAPIGYMGSFKNLCDKRGDSVSFDEYWKKDSTAELYHFIGKDIVYFHSLFWPAMLEGSNFRKPSNLFVHGYVTVNGAKMSKSRGTFIKASTWLNHFDADSLRYYYTAKLSSRIDDIDLNLEDFVQRVNADIVNKVVNLASRNAGFINKRFDGVLASELADPQLYKTFTDAAEVIGEAWESREFGKAVREIMALADLANRYVDEQAPWVVAKQEGRDADLQAICSMGINLFRVLMTYLKPVLPKLTERAEAFLNTELTWDGIQQPLLGHKVNPFKALYNRIDMRQVEALVEASK
notes: The fully active, truncated form of methionyl tRNA synthetase (MetRS) was purified from overnight cultures of JM101 cells carrying the plasmid pGG3; made in house; host or cells: E. coli JM101 carrying plasmid pGG3
[1]; [6]
  Km: 0.0243 ± 0.002 mM
  kcat: 13.3 s⁻¹
  kcat/Km: 547000 M⁻¹ s⁻¹
[1]; [7]
  kcat/Km: 0.54 s^−1μM^−1
[2]
  Km: 2.415 ± 0.17 mM
  kcat: 2.6 ± 0.3 s⁻¹
  kcat/Km: 1080 M⁻¹ s⁻¹
[3]; [6]
  Km: 15,675 ± 250 μM
  kcat: 1.82 ± 0.6 s⁻¹
  kcat/Km: 116 M⁻¹ s⁻¹
[3]; [7]
  kcat/Km: 1.1×10^−4 s^−1μM^−1
[4]
  Km: 4.555 ± 0.2 mM
  kcat: 1.35 ± 0.1 s⁻¹
  kcat/Km: 296 M⁻¹ s⁻¹
[5]
  Km: 4.12 ± 0.9 mM
  kcat: 2.15 ± 0.6 s⁻¹
  kcat/Km: 522 M⁻¹ s⁻¹
